# Reference: patent US20250327097A1, “ORGANISMS PRODUCING LESS CROTONIC ACID” (Global Bioenergies, priority 2021, published 2025)
# Positions count from the first letter of the chain named. Numbers in names are those of the source.
# B1: I283T-N285P-N287T-Q290E-S322T-N388M-K394R-i424aS-C430A-L432F-L434W-S436N-dG462 (protein)
# chain: MFLKSLREQINLLKRQGDLRIINRPVDSYLEAAAIIRRSTETKAPVPLMTNIKGYPGCSIVGGLAALSSNPEYPLSRVAMSLGLSTTASAQSIVQYLIDGLKKTPYLPVEIDSNSAPCKQNILRGEDASLAHFPIPQVHQHDGNRYVNTWGVFIVESPDGQWCNWSIQRVQYLNDRQMIALVFPSQHISDIWEEWVKIGKPMPYALVQGCEPIVPYIAGLPLLERNVNEAEYIGALYGKGIEVVKCETHDLRVPASSEVVIEGYFAITREGVEGPFGEFAGYTPPETSLEPILSITAISWQDDPIWPVVAEGKPVDEYHTCTGIGDAAAIQNVLLTANLPVSFVWVPLYSACHLMIVSINRHWRQTHPDLTSEQLTKKVGDVIHQTRMSIKLPRIVVLDDDVDPADTESLLWALATRIHPERKRYFYESAIFPWLNCYSEEERHNRKGKRVIIDALLPENHGAISSFDYAYPDDIKQRVLMHWETDFSHD
# B2: I283T-N285P-N287T-Q290E-S322T-N388M-K394R-C430A-L432F-L434W-S436N-i438aD-dG462 (protein)
# chain: B1 chain
# B3: I283T-N285P-N287T-Q290E-S322T-N388M-K394R-C430A-i430aH-L432F-L434W-S436N-dG462 (protein)
# chain: B1 chain
# B4: V382A-N388M-K394R-C430N-L432F-L434W-S436N (protein)
# chain: B1 chain with T283I, P285N, T287N, E290Q, T322S, V382A, A430N
# B5: I283T-N285P-N287T-Q290E-S322T-N388M-K394R-C430A-L432F-L434W-S436N-i443aT-dG462 (protein)
# chain: B1 chain
# B6: I283T-N285P-N287T-Q290E-S322T-N388M-K394R-C430A-i430aL-L432F-L434W-S436N-dG462 (protein)
# chain: B1 chain
# B7: N388M-K394R-S429D-C430N-L432F-L434W-S436N (protein)
# chain: B1 chain with T283I, P285N, T287N, E290Q, T322S, S429D, A430N
# B8: I283T-N285P-N287T-Q290E-S322T-N388M-K394R-C430A-L432F-L434W-S436N-i443aL-dG462 (protein)
# chain: B1 chain
# B9: I283T-N285P-N287T-Q290E-S322T-N388M-K394R-i424aD-C430A-L432F-L434W-S436N-dG462 (protein)
# chain: B1 chain
# B10: I283T-N285P-N287T-Q290E-S322T-N388M-K394R-C430A-i430aQ-L432F-L434W-S436N-dG462 (protein)
# chain: B1 chain
# B11: I283T-N285P-N287T-Q290E-S322T-N388M-K394R-i426aL-C430A-L432F-L434W-S436N-dG462 (protein)
# chain: B1 chain
# B12: I283T-N285P-N287T-Q290E-S322T-N388M-K394R-C430A-L432F-L434W-S436N-i444aH-dG462 (protein)
# chain: B1 chain
# B13: I283T-N285P-N287T-Q290E-S322T-N388M-K394R-C430A-i430aG-L432F-L434W-S436N-dG462 (protein)
# chain: B1 chain
# B14: I283T-N285P-N287T-Q290E-S322T-N388M-K394R-C430A-L432F-L434W-S436N-i444aV-dG462 (protein)
# chain: B1 chain
# B15: I283T-N285P-N287T-Q290E-S322T-N388M-K394R-C430A-i430aI-L432F-L434W-S436N-dG462 (protein)
# chain: B1 chain
# B16: I283T-N285P-N287T-Q290E-S322T-N388M-K394R-C430A-L432F-L434W-S436N-i443aV-dG462 (protein)
# chain: B1 chain
# B17: I283T-N285P-N287T-Q290E-S322T-N388M-K394R-C430A-i430aC-L432F-L434W-S436N-dG462 (protein)
# chain: B1 chain
# B18: I283T-N285P-N287T-Q290E-S322T-N388M-K394R-C430A-L432F-L434W-S436N-i443aR-dG462 (protein)
# chain: B1 chain
# B19: I283T-N285P-N287T-Q290E-S322T-N388M-K394R-C430A-i430aN-L432F-L434W-S436N-dG462 (protein)
# chain: B1 chain
# B20: I283T-N285P-N287T-Q290E-S322T-N388M-K394R-C430A-i430aR-L432F-L434W-S436N-dG462 (protein)
# chain: B1 chain
# B21: I283T-N285P-N287T-Q290E-S322T-N388M-K394R-C430A-L432F-L434W-S436N-i444aP-dG462 (protein)
# chain: B1 chain
# B22: I283T-N285P-N287T-Q290E-S322T-N388M-K394R-i429aN-C430A-L432F-L434W-S436N-dG462 (protein)
# chain: B1 chain
# B23: I283T-N285P-N287T-Q290E-S322T-N388M-K394R-C430A-i430aS-L432F-L434W-S436N-dG462 (protein)
# chain: B1 chain
# System: 3-methylcrotonic acid
# Assay type: biochemical, Yersinia frederiksenii
# Parameters: key: “+” representing a low increase in activity; “++++” representing a high increase in activity
row,Molecule,Activity relative to WT
1,B1,++++
2,B2,++++
3,B3,++++
4,B4,+
5,B5,++++
6,B6,++++
7,B7,+
8,B8,++++
9,B9,++++
10,B10,++++
11,B11,++++
12,B12,++++
13,B13,++++
14,B14,++++
15,B15,++++
16,B16,++++
17,B17,++++
18,B18,++++
19,B19,++++
20,B20,++++
21,B21,++++
22,B22,++++
23,B23,++++
